According to patent US20220017573A1:

Tests used:
ScuR/SarF system = assay: cell-based or functional assay
[1] = molecular target: ScuR-StrepTag (Streptococcus salivarius HSISS4); assay: EMSA: Cy3 PsptA probe, constant ScuR-StrepTag, decreasing sBI7; peptide-dependent ternary complex

Question: Which results are given for LPFWLILG [sBI7]?
Answer: peptide concentration to which the PsptA, PslvX and PcomS luxAB reporters respond in WT background (ScuR/SarF system): < 1 nM; lowest peptide concentration at which ScuR shifts the PsptA probe [1]: 0.08 nM
